Data from the Immune Epitope Database (IEDB).

Assays:
HLA-B*07:02 [1] = experiment: IEDB peptide-MHC binding, purified MHC/competitive/fluorescence; ≥ and ≤ were set here for values at or beyond the usual limits of such assays; settings: source organism: Zaire ebolavirus
HLA-A*03:01 [2] = experiment: IEDB peptide-MHC binding, purified MHC/direct/fluorescence; filed as Kd, often an IC50 or EC50 that approximates it; ≥ and ≤ were set here for values at or beyond the usual limits of such assays
HLA-B*27:05 = experiment: as above
HLA-A*01:01 = experiment: as above
HLA-A*31:01 = experiment: as above
HLA-B*58:01 = experiment: as above
HLA-A*24:03 = experiment: as above
HLA-A*11:01 = experiment: as above
HLA-B*15:01 [3] = experiment: as above
HLA-A*26:01 [4] = experiment: as above
HLA-B*07:02 [5] = experiment: as above
HLA-B*40:01 = experiment: as above
HLA-A*69:01 [6] = experiment: as above
HLA-A*02:01 [7] = experiment: as above
HLA-B*44:02 = experiment: as above
HLA-A*30:01 = experiment: as above
HLA-B*08:01 = experiment: as above
HLA-A*29:02 [8] = experiment: IEDB peptide-MHC binding, purified MHC/competitive/fluorescence; filed as Kd, often an IC50 or EC50 that approximates it; ≥ and ≤ were set here for values at or beyond the usual limits of such assays
HLA-A*24:02 = experiment: IEDB peptide-MHC binding, purified MHC/competitive/fluorescence; ≥ and ≤ were set here for values at or beyond the usual limits of such assays; settings: source organism: Zaire ebolavirus
HLA-A*02:01 [9] = experiment: as above; settings: source organism: Zaire ebolavirus
HLA-A*29:02 [10] = experiment: IEDB peptide-MHC binding, purified MHC/direct/fluorescence; filed as Kd, often an IC50 or EC50 that approximates it; ≥ and ≤ were set here for values at or beyond the usual limits of such assays; settings: source organism: Entamoeba histolytica HM-1:IMSS
HLA-B*57:01 [11] = experiment: as above; settings: source organism: Entamoeba histolytica HM-1:IMSS
HLA-B*18:01 [12] = experiment: as above; settings: source organism: Entamoeba histolytica HM-1:IMSS
HLA-A*02:03 = experiment: IEDB peptide-MHC binding, purified MHC/competitive/fluorescence; filed as Kd, often an IC50 or EC50 that approximates it; ≥ and ≤ were set here for values at or beyond the usual limits of such assays
HLA-B*39:01 = experiment: as above
HLA-A*03:01 [13] = experiment: as above
HLA-A*68:02 = experiment: as above
HLA-A*02:12 = experiment: as above
HLA-B*15:17 = experiment: as above; settings: source organism: Vibrio vulnificus YJ016
HLA-B*51:01 = experiment: as above
HLA-A*02:16 = experiment: as above
HLA-B*57:01 [14] = experiment: as above
HLA-B*27:03 = experiment: as above
HLA-B*15:01 [15] = experiment: as above
HLA-A*26:01 [16] = experiment: as above
HLA-A*02:11 = experiment: as above
HLA-A*69:01 [17] = experiment: as above
HLA-B*46:01 = experiment: as above
HLA-A*02:19 = experiment: as above
HLA-B*18:01 [18] = experiment: as above
HLA-A*02:01 [19] = experiment: as above
[20] = source organism: Campylobacter jejuni
[21] = source organism: Rickettsia sibirica
[22] = source organism: Rickettsia conorii
[23] = source organism: Entamoeba histolytica HM-1:IMSS
[24] = source organism: Vibrio vulnificus YJ016
[25] = source organism: Cryptosporidium parvum Iowa II
[26] = source organism: La Crosse virus
[27] = source organism: Campylobacter jejuni subsp. jejuni NCTC 11168 = ATCC 700819

## ENTNTSKST
HLA-B*07:02 [1]
  IC50: ≥ 200 µM

## SFGAGTLAK
HLA-A*03:01 [2]; [20]
  Kd: 1.97 µM
HLA-B*27:05; [20]
  Kd: ≥ 20 µM
HLA-A*01:01; [20]
  Kd: ≥ 20 µM
HLA-A*31:01; [20]
  Kd: 3.9 µM
HLA-B*58:01; [20]
  Kd: ≥ 20 µM
HLA-A*24:03; [20]
  Kd: ≥ 20 µM
HLA-A*11:01; [20]
  Kd: 0.383 µM
HLA-B*15:01 [3]; [20]
  Kd: ≥ 20 µM
HLA-A*26:01 [4]; [20]
  Kd: ≥ 20 µM
HLA-B*07:02 [5]; [20]
  Kd: ≥ 20 µM
HLA-B*40:01; [20]
  Kd: ≥ 20 µM
HLA-A*69:01 [6]; [20]
  Kd: ≥ 20 µM
HLA-A*02:01 [7]; [20]
  Kd: ≥ 20 µM
HLA-B*44:02; [20]
  Kd: ≥ 20 µM
HLA-A*30:01; [20]
  Kd: 0.0186 µM
HLA-B*08:01; [20]
  Kd: ≥ 20 µM

## QWALLPYLF
HLA-A*29:02 [8]; source organism: Brucella canis ATCC 23365
  Kd: ≤ 0.0001 µM

## RTGDIGCFK
HLA-A*03:01 [2]; [21]
  Kd: 0.836 µM
HLA-B*27:05; [22]
  Kd: ≥ 20 µM
HLA-A*01:01; [22]
  Kd: ≥ 20 µM
HLA-A*31:01; [21]
  Kd: 0.223 µM
HLA-B*58:01; [22]
  Kd: ≥ 20 µM
HLA-A*24:03; [22]
  Kd: ≥ 20 µM
HLA-A*11:01; [21]
  Kd: 0.0688 µM
HLA-B*15:01 [3]; [22]
  Kd: ≥ 20 µM
HLA-A*26:01 [4]; [22]
  Kd: ≥ 20 µM
HLA-B*07:02 [5]; [22]
  Kd: ≥ 20 µM
HLA-B*40:01; [22]
  Kd: ≥ 20 µM
HLA-A*69:01 [6]; [22]
  Kd: ≥ 20 µM
HLA-A*02:01 [7]; [22]
  Kd: ≥ 20 µM
HLA-B*44:02; [22]
  Kd: ≥ 20 µM
HLA-A*30:01; [21]
  Kd: 0.0355 µM
HLA-B*08:01; [22]
  Kd: ≥ 20 µM

## RRTRREAIV
HLA-A*24:02
  IC50: 63.3 µM
HLA-B*07:02 [1]
  IC50: 37.7 µM
HLA-A*02:01 [9]
  IC50: ≥ 5060 µM

## ETMKPAAMV
HLA-A*01:01; [23]
  Kd: ≥ 20 µM
HLA-B*58:01; [23]
  Kd: ≥ 20 µM
HLA-A*29:02 [10]
  Kd: ≥ 20 µM
HLA-B*57:01 [11]
  Kd: ≥ 20 µM
HLA-B*15:01 [3]; [23]
  Kd: ≥ 20 µM
HLA-B*07:02 [5]; [23]
  Kd: ≥ 20 µM
HLA-B*40:01; [23]
  Kd: ≥ 20 µM
HLA-A*69:01 [6]; [23]
  Kd: 0.0015 µM
HLA-B*18:01 [12]
  Kd: ≥ 20 µM
HLA-A*02:01 [7]; [23]
  Kd: ≥ 20 µM
HLA-B*44:02; [23]
  Kd: ≥ 20 µM
HLA-A*30:01; [23]
  Kd: ≥ 20 µM

## DFISMYFPW
HLA-A*02:03; [24]
  Kd: ≥ 20 µM
HLA-B*39:01; [24]
  Kd: ≥ 20 µM
HLA-A*03:01 [13]; [24]
  Kd: ≥ 20 µM
HLA-A*68:02; [24]
  Kd: ≥ 20 µM
HLA-A*02:12; [24]
  Kd: ≥ 20 µM
HLA-B*15:17
  Kd: ≥ 20 µM
HLA-B*51:01; [24]
  Kd: ≥ 20 µM
HLA-A*02:16; [24]
  Kd: ≥ 20 µM
HLA-B*57:01 [14]; [24]
  Kd: ≥ 20 µM
HLA-B*27:03; [24]
  Kd: ≥ 20 µM
HLA-B*15:01 [15]; [24]
  Kd: ≥ 20 µM
HLA-A*26:01 [16]; [24]
  Kd: ≥ 20 µM
HLA-A*02:11; [24]
  Kd: ≥ 20 µM
HLA-A*69:01 [17]; [24]
  Kd: ≥ 20 µM
HLA-B*46:01; [24]
  Kd: ≥ 20 µM
HLA-A*02:19; [24]
  Kd: ≥ 20 µM
HLA-B*18:01 [18]; [24]
  Kd: 0.946 µM
HLA-A*02:01 [19]; [24]
  Kd: ≥ 20 µM

## FLYPSWSLY
HLA-B*39:01; [25]
  Kd: ≥ 20 µM
HLA-A*02:16; [25]
  Kd: 0.101 µM
HLA-B*57:01 [14]; [25]
  Kd: ≥ 20 µM
HLA-B*27:03; [25]
  Kd: ≥ 20 µM
HLA-A*69:01 [17]; [25]
  Kd: ≥ 20 µM
HLA-A*02:19; [25]
  Kd: ≥ 20 µM
HLA-A*02:01 [19]; [25]
  Kd: 0.169 µM

## YRKPSGGVF
HLA-A*03:01 [2]; [26]
  Kd: ≥ 20 µM
HLA-B*27:05; [26]
  Kd: 0.232 µM
HLA-A*01:01; [26]
  Kd: ≥ 20 µM
HLA-A*31:01; [26]
  Kd: ≥ 20 µM
HLA-B*58:01; [26]
  Kd: ≥ 20 µM
HLA-A*24:03; [26]
  Kd: 4.78 µM
HLA-A*11:01; [26]
  Kd: ≥ 20 µM
HLA-B*15:01 [3]; [26]
  Kd: 0.797 µM
HLA-A*26:01 [4]; [26]
  Kd: ≥ 20 µM
HLA-B*07:02 [5]; [26]
  Kd: 6.06 µM
HLA-B*40:01; [26]
  Kd: ≥ 20 µM
HLA-A*69:01 [6]; [26]
  Kd: ≥ 20 µM
HLA-A*02:01 [7]; [26]
  Kd: ≥ 20 µM
HLA-B*44:02; [26]
  Kd: ≥ 20 µM
HLA-A*30:01; [26]
  Kd: ≥ 20 µM
HLA-B*08:01; [26]
  Kd: 0.166 µM

## KTRMEDYYL
HLA-A*02:03; [23]
  Kd: ≥ 20 µM
HLA-B*39:01; [23]
  Kd: ≥ 20 µM
HLA-A*03:01 [13]; [23]
  Kd: ≥ 20 µM
HLA-A*02:12; [23]
  Kd: ≥ 20 µM
HLA-B*51:01; [23]
  Kd: ≥ 20 µM
HLA-A*29:02 [8]; [23]
  Kd: ≥ 20 µM
HLA-B*57:01 [14]; [23]
  Kd: 0.151 µM
HLA-B*27:03; [23]
  Kd: ≥ 20 µM
HLA-B*15:01 [15]; [23]
  Kd: ≥ 20 µM
HLA-A*26:01 [16]; [23]
  Kd: ≥ 20 µM
HLA-B*46:01; [23]
  Kd: ≥ 20 µM
HLA-A*02:19; [23]
  Kd: ≥ 20 µM
HLA-B*18:01 [18]; [23]
  Kd: ≥ 20 µM
HLA-A*02:01 [19]; [23]
  Kd: ≥ 20 µM

## AELIDSFTW
HLA-A*02:03; [27]
  Kd: ≥ 20 µM
HLA-B*39:01; [27]
  Kd: ≥ 20 µM
HLA-A*03:01 [13]; [27]
  Kd: ≥ 20 µM
HLA-A*68:02; [27]
  Kd: ≥ 20 µM
HLA-A*02:12; [27]
  Kd: ≥ 20 µM
HLA-B*51:01; [27]
  Kd: ≥ 20 µM
HLA-A*02:16; [27]
  Kd: ≥ 20 µM
HLA-B*57:01 [14]; [27]
  Kd: ≥ 20 µM
HLA-B*27:03; [27]
  Kd: ≥ 20 µM
HLA-B*15:01 [15]; [27]
  Kd: ≥ 20 µM
HLA-A*26:01 [16]; [27]
  Kd: ≥ 20 µM
HLA-A*02:11; [27]
  Kd: ≥ 20 µM
HLA-A*69:01 [17]; [27]
  Kd: ≥ 20 µM
HLA-B*46:01; [27]
  Kd: ≥ 20 µM
HLA-A*02:19; [27]
  Kd: ≥ 20 µM
HLA-B*18:01 [18]; [27]
  Kd: 0.462 µM
HLA-A*02:01 [19]; [27]
  Kd: ≥ 20 µM
